The nature of the data set: melting temperature; melt of duplexes. Particulars: sodium 0.0675 M; strand 1 µM.
As to “CGACGTGCAGAATGTGCTG+CAGCACATACTGCACGTCG ((((((((((.((((((((+)))))))).))))))))))”, the Tm worked out at 57.8 °C. The same measure for “CGACGTGCTCGATGTGCTG+CAGCACATTGAGCACGTCG ((((((((((.((((((((+)))))))).))))))))))”: 60.7 °C. With “CGACGTGCTGTATGTGCTG+CAGCACATTTTGCACGTCG ((((((((...((((((((+))))))))...))))))))”, the Tm came to 49.2 °C.

Regarding “CGACGTGCTGGATGTGCTG+CAGCACATTCCGCACGTCG ((((((((.(.((((((((+)))))))).).))))))))”, the Tm was 53.9 °C.

Turning to “CGACGTGCTAGATGTGCTG+CAGCACATCCGGCACGTCG ((((((((..(((((((((+)))))))))..))))))))”, the Tm came out at 55.4 °C.

Turning to “CGACGTGCGAAATGTGCTG+CAGCACATCCAGCACGTCG ((((((((...((((((((+))))))))...))))))))”, the Tm was found to be 50.8 °C. For “CGACGTGCATAATGTGCTG+CAGCACATGGTGCACGTCG (((((((((..((((((((+))))))))..)))))))))”, the Tm was 52.6 °C. As for “CGACGTGCTCTATGTGCTG+CAGCACATGAAGCACGTCG (((((((((..((((((((+))))))))..)))))))))”, the figure is 53 °C; as for “CGACGTGCCTCATGTGCTG+CAGCACATTAGGCACGTCG ((((((((((.((((((((+)))))))).))))))))))”, 56.3 °C. The same measure for “CGACGTGCAACATGTGCTG+CAGCACATATTGCACGTCG ((((((((((.((((((((+)))))))).))))))))))”: 54.3 °C. The same measure for “CGACGTGCGTGATGTGCTG+CAGCACATGTAGCACGTCG ((((((((...((((((((+))))))))...))))))))”: 53.3 °C; for “CGACGTGCGGGATGTGCTG+CAGCACATAGCGCACGTCG (((((((((..((((((((+))))))))..)))))))))”: 57.4 °C; for “CGACGTGCTTGATGTGCTG+CAGCACATCGCGCACGTCG ((((((((..(((((((((+)))))))))..))))))))”: 54.3 °C. For “CGACGTGCTACATGTGCTG+CAGCACATAACGCACGTCG ((((((((...((((((((+))))))))...))))))))”, the Tm was found to be 49 °C. As to “CGACGTGCGAGATGTGCTG+CAGCACATGATGCACGTCG ((((((((...((((((((+))))))))...))))))))”, the Tm stood at 53.2 °C. The same measure for “CGACGTGCCCCATGTGCTG+CAGCACATAAAGCACGTCG ((((((((...((((((((+))))))))...))))))))”: 47.7 °C; for “CGACGTGCTAGATGTGCTG+CAGCACATAACGCACGTCG ((((((((...((((((((+))))))))...))))))))”: 49.9 °C; for “CGACGTGCTAAATGTGCTG+CAGCACATGATGCACGTCG ((((((((...((((((((+))))))))...))))))))”: 53.2 °C. As for “CGACGTGCGTAATGTGCTG+CAGCACATATGGCACGTCG ((((((((...((((((((+))))))))...))))))))”, the figure is 51 °C; as for “CGACGTGCGGAATGTGCTG+CAGCACATTTGGCACGTCG ((((((((..(((((((((+)))))))))..))))))))”, 54.6 °C. Take “CGACGTGCATTATGTGCTG+CAGCACATGGTGCACGTCG (((((((((..((((((((+))))))))..)))))))))”: the melting temperature (Tm) came to 51.8 °C. The same measure for “CGACGTGCTAAATGTGCTG+CAGCACATGACGCACGTCG ((((((((...((((((((+))))))))...))))))))”: 50.2 °C. As for “CGACGTGCTCTATGTGCTG+CAGCACATACCGCACGTCG ((((((((..(((((((((+)))))))))..))))))))”, the figure is 48.5 °C; as for “CGACGTGCGTAATGTGCTG+CAGCACATTCCGCACGTCG (((((((((.(((((((((+))))))))).)))))))))”, 57.7 °C; as for “CGACGTGCAATATGTGCTG+CAGCACATTCTGCACGTCG (((((((((..((((((((+))))))))..)))))))))”, 50.7 °C. As for “CGACGTGCAACATGTGCTG+CAGCACATGACGCACGTCG ((((((((..(((((((((+)))))))))..))))))))”, the figure is 50.9 °C; as for “CGACGTGCTCGATGTGCTG+CAGCACATTGCGCACGTCG ((((((((.(.((((((((+)))))))).).))))))))”, 52.4 °C; as for “CGACGTGCTCTATGTGCTG+CAGCACATAAAGCACGTCG (((((((((.(((((((((+))))))))).)))))))))”, 54 °C. Consider “CGACGTGCCGAATGTGCTG+CAGCACATCGAGCACGTCG ((((((((...((((((((+))))))))...))))))))”, for which the Tm amounted to 55.3 °C.

Consider “CGACGTGCGCCATGTGCTG+CAGCACATGACGCACGTCG (((((((((.(((((((((+))))))))).)))))))))”, for which the Tm is 59.3 °C.

“CGACGTGCTTTATGTGCTG+CAGCACATTTTGCACGTCG ((((((((...((((((((+))))))))...))))))))”: the Tm was found to be 49.5 °C. The same measure for “CGACGTGCTTTATGTGCTG+CAGCACATCGAGCACGTCG (((((((((..((((((((+))))))))..)))))))))”: 51.3 °C; for “CGACGTGCGCGATGTGCTG+CAGCACATGTTGCACGTCG ((((((((...((((((((+))))))))...))))))))”: 50.5 °C; for “CGACGTGCTCGATGTGCTG+CAGCACATAGGGCACGTCG ((((((((.(.((((((((+)))))))).).))))))))”: 55.4 °C. Take “CGACGTGCGCGATGTGCTG+CAGCACATCGCGCACGTCG (((((((((((((((((((+)))))))))))))))))))”: the Tm was 69.3 °C. For the substance “CGACGTGCAAGATGTGCTG+CAGCACATGGCGCACGTCG ((((((((...((((((((+))))))))...))))))))”, the Tm is 51.3 °C. The same measure for “CGACGTGCGGGATGTGCTG+CAGCACATGAGGCACGTCG ((((((((...((((((((+))))))))...))))))))”: 51.9 °C; for “CGACGTGCACCATGTGCTG+CAGCACATCCTGCACGTCG (((((((((..((((((((+))))))))..)))))))))”: 44.7 °C. As for “CGACGTGCGATATGTGCTG+CAGCACATTGAGCACGTCG ((((((((...((((((((+))))))))...))))))))”, the figure is 57.2 °C.

“CGACGTGCGGAATGTGCTG+CAGCACATAGCGCACGTCG (((((((((..((((((((+))))))))..)))))))))”: the Tm is 55.5 °C. As for “CGACGTGCCGCATGTGCTG+CAGCACATAGAGCACGTCG ((((((((...((((((((+))))))))...))))))))”, the figure is 50.7 °C. The same measure for “CGACGTGCAGTATGTGCTG+CAGCACATGGAGCACGTCG ((((((((...((((((((+))))))))...))))))))”: 50.6 °C; for “CGACGTGCCCCATGTGCTG+CAGCACATACAGCACGTCG ((((((((...((((((((+))))))))...))))))))”: 47.1 °C; for “CGACGTGCGCAATGTGCTG+CAGCACATTTAGCACGTCG ((((((((..(((((((((+)))))))))..))))))))”: 53 °C. The same measure for “CGACGTGCACGATGTGCTG+CAGCACATACGGCACGTCG ((((((((...((((((((+))))))))...))))))))”: 48.2 °C. Regarding “CGACGTGCTCAATGTGCTG+CAGCACATTCGGCACGTCG ((((((((..(((((((((+)))))))))..))))))))”, the Tm was found to be 51.2 °C. As for “CGACGTGCTGTATGTGCTG+CAGCACATATGGCACGTCG ((((((((..(((((((((+)))))))))..))))))))”, the figure is 54.4 °C.

The values above are taken from the array DNA melting data of Ke et al..
